{
  "source": "paper PMC11219989",
  "binders": {"B1": {"name": "TCR2 (peptide)", "chain 1": "AGVTGGGNKLT", "chain 2": "ASSLTSASGELF"}, "B2": {"name": "TCR6 (peptide)", "chain 1": "AVGDNFNKFY", "chain 2": "ASSYVGNTGELF"}, "B3": {"name": "TCR19 (peptide)", "chain 1": "AVGRGYGQNFV", "chain 2": "ASSQDGGLNEKLF"}, "B4": {"name": "TCR3 (peptide)", "chain 1": "APWMDSSYKLI", "chain 2": "ASSIGGHDGYT"}, "B5": {"name": "TCR9 (peptide)", "chain 1": "AVRGTLSGGSYIPT", "chain 2": "ASSATSASGELF"}, "B6": {"name": "TCR18 (peptide)", "chain 1": "AVRDEGARLM", "chain 2": "ASSIFSGTGGADTQY"}, "B7": {"name": "TCR12 (peptide)", "chain 1": "VSGFSDGQKLL", "chain 2": "ATTKTGERPDEQF"}, "B8": {"name": "TCR7 (peptide)", "chain 1": "AMREGADSWGKFQ", "chain 2": "ASSLHGRGDEKLF"}, "B9": {"name": "TCR13 (peptide)", "chain 1": "ANDSGGGADGLT", "chain 2": "SARGLLGGRAREQF"}, "B10": {"name": "TCR1 (peptide)", "chain 1": "AGVTGGGNKLT", "chain 2": "ASSEGTGFYGYT"}, "B11": {"name": "TCR5 (peptide)", "chain 1": "AVSRDDKII", "chain 2": "ASSYVGNTGELF"}, "B12": {"name": "TCR8 (peptide)", "chain 1": "ALKAGGGASKLT", "chain 2": "ASSVGGGVDEQF"}, "B13": {"name": "TCR17 (peptide)", "chain 1": "AVFSGGYNKLI", "chain 2": "ASSLEFYSNQPQH"}, "B14": {"name": "TCR10 (peptide)", "chain 1": "AASPPGGSQGNLI", "chain 2": "ASSHRTSSRGEQF"}, "B15": {"name": "TCR14 (peptide)", "chain 1": "VVSFSGGYNKLI", "chain 2": "ASSVGDRDYGYT"}, "B16": {"name": "TCR15 (peptide)", "chain 1": "AVSGRSNDYKLS", "chain 2": "ASSEKRQGAGNTIY"}, "B17": {"name": "TCR20 (peptide)", "chain 1": "AENMGFQKLV", "chain 2": "AWTQGANGYT"}},
  "key": {"[1]": {"target": "T1, unknown natural tumor antigen of the autologous tumor organoids of patient CRC1 peptide on (human)", "assay": "CD137 sort of CD8+ oeT cells after 24 h restimulation with autologous tumor organoids (cells that express the antigen), single-cell RT-PCR; 3.6% in TIL alone; ex vivo sorted cells", "details": "chains alpha TRAV35*02 TRAJ10*01 CDR3:beta TRBV28*01 TRBJ2-2*01 CDR3"}, "[2]": {"target": "T2, unknown natural tumor antigen of the autologous tumor organoids of patient CRC2 peptide on (human)", "assay": "CD137 sort of CD8+ oeT cells after 24 h restimulation with autologous tumor organoids (cells that express the antigen), single-cell RT-PCR; 1.1% in TIL alone; ex vivo sorted cells"}, "[3]": {"target": "T3, unknown natural tumor antigen of the autologous tumor organoids of patient CRC4 peptide on (human)", "assay": "CD137 sort of CD8+ oeT cells after 24 h restimulation with autologous tumor organoids (cells that express the antigen), single-cell RT-PCR; 0% in TIL alone; ex vivo sorted cells"}, "[4]": {"target": "T1, unknown natural tumor antigen of the …", "assay": "CD137 sort of CD8+ oeT cells after 24 h restimulation with autologous tumor organoids (cells that express the antigen), single-cell RT-PCR; 2.5% in TIL alone; ex vivo sorted cells", "details": "chains alpha TRAV24*01 TRAJ12*01 CDR3:beta TRBV28*01 TRBJ1-2*01 CDR3"}, "[5]": {"target": "T4, unknown natural tumor antigen of the autologous tumor organoids of patient CRC3 peptide on (human)", "assay": "CD137 sort of CD8+ oeT cells after 24 h restimulation with autologous tumor organoids (cells that express the antigen), single-cell RT-PCR; 1.3% in TIL alone; ex vivo sorted cells", "details": "chains alpha TRAV10*01 TRAJ16*02 CDR3:beta TRBV10-3*02 TRBJ2-1*01 CDR3"}, "[6]": {"target": "T2, unknown natural tumor antigen of the …", "assay": "CD137 sort of CD8+ oeT cells after 24 h restimulation with autologous tumor organoids (cells that express the antigen), single-cell RT-PCR; 0.5% in TIL alone; ex vivo sorted cells"}, "[7]": {"target": "T4, unknown natural tumor antigen of the …", "assay": "CD137 sort of CD8+ oeT cells after 24 h restimulation with autologous tumor organoids (cells that express the antigen), single-cell RT-PCR; 3% in TIL alone; ex vivo sorted cells", "details": "chains alpha TRAV14/DV4*01 TRAJ45*01 CDR3:beta TRBV20-1*01 TRBJ2-1*01 CDR3"}, "[8]": {"target": "T1, unknown natural tumor antigen of the …", "assay": "CD137 sort of CD8+ oeT cells after 24 h restimulation with autologous tumor organoids (cells that express the antigen), single-cell RT-PCR; 4.3% in TIL alone; ex vivo sorted cells", "details": "chains alpha TRAV35*02 TRAJ10*01 CDR3:beta TRBV6-1*01 TRBJ1-2*01 CDR3"}, "[9]": {"target": "T1, unknown natural tumor antigen of the …", "assay": "CD137 sort of CD8+ oeT cells after 24 h restimulation with autologous tumor organoids (cells that express the antigen), single-cell RT-PCR; 1.2% in TIL alone; ex vivo sorted cells", "details": "chains alpha TRAV36/DV7*04 TRAJ30*01 CDR3:beta TRBV6-5*01 TRBJ2-2*01 CDR3"}, "[10]": {"target": "T2, unknown natural tumor antigen of the …", "assay": "CD137 sort of CD8+ oeT cells after 24 h restimulation with autologous tumor organoids (cells that express the antigen), single-cell RT-PCR; 2.8% in TIL alone; ex vivo sorted cells", "details": "chains alpha TRAV23/DV6*01 TRAJ45*01 CDR3:beta TRBV9*01 TRBJ2-1*01 CDR3"}, "[11]": {"target": "T3, unknown natural tumor antigen of the …", "assay": "CD137 sort of CD8+ oeT cells after 24 h restimulation with autologous tumor organoids (cells that express the antigen), single-cell RT-PCR; 2.4% in TIL alone; ex vivo sorted cells", "details": "chains alpha TRAV20*01 TRAJ4*01 CDR3:beta TRBV12-3*01 TRBJ1-5*01 CDR3"}, "[12]": {"target": "T4, unknown natural tumor antigen of the …", "assay": "CD137 sort of CD8+ oeT cells after 24 h restimulation with autologous tumor organoids (cells that express the antigen), single-cell RT-PCR; 0% in TIL alone; ex vivo sorted cells", "details": "chains alpha TRAV10*01 TRAJ4*01 CDR3:beta TRBV9*01 TRBJ1-2*01 CDR3"}, "[13]": {"target": "T4, unknown natural tumor antigen of the …", "assay": "CD137 sort of CD8+ oeT cells after 24 h restimulation with autologous tumor organoids (cells that express the antigen), single-cell RT-PCR; 0.4% in TIL alone; ex vivo sorted cells", "details": "chains alpha TRAV8-6*02 TRAJ20*01 CDR3:beta TRBV6-1*01 TRBJ1-3*01 CDR3"}},
  "data": [
    {"binder": "B1", "values": [
      {"measurement": "frequency among sorted CD8+CD137+ PDO(T)-oeT cells", "setting": "[1]", "result": 17.8, "unit": "%"}
    ]},
    {"binder": "B2", "values": [
      {"measurement": "frequency among sorted CD8+CD137+ PDO(T)-oeT cells", "setting": "[2]; chains alpha TRAV8-3*01 TRAJ21*01 CDR3:beta TRBV28*01 TRBJ2-2*01 CDR3", "result": 13.4, "unit": "%"}
    ]},
    {"binder": "B3", "values": [
      {"measurement": "frequency among sorted CD8+CD137+ PDO(T)-oeT cells", "setting": "[3]; chains alpha TRAV22*01 TRAJ26*01 CDR3:beta TRBV4-3*01 TRBJ1-4*01 CDR3", "result": 7.7, "unit": "%"}
    ]},
    {"binder": "B4", "values": [
      {"measurement": "frequency among sorted CD8+CD137+ PDO(T)-oeT cells", "setting": "[4]", "result": 6.7, "unit": "%"}
    ]},
    {"binder": "B5", "values": [
      {"measurement": "frequency among sorted CD8+CD137+ PDO(T)-oeT cells", "setting": "[2]; chains alpha TRAV1-2*01 TRAJ6*01 CDR3:beta TRBV28*01 TRBJ2-2*01 CDR3", "result": 8.2, "unit": "%"}
    ]},
    {"binder": "B6", "values": [
      {"measurement": "frequency among sorted CD8+CD137+ PDO(T)-oeT cells", "setting": "[3]; chains alpha TRAV3*01 TRAJ31*01 CDR3:beta TRBV9*01 TRBJ2-3*01 CDR3", "result": 10.3, "unit": "%"}
    ]},
    {"binder": "B7", "values": [
      {"measurement": "frequency among sorted CD8+CD137+ PDO(T)-oeT cells", "setting": "[5]", "result": 8, "unit": "%"}
    ]},
    {"binder": "B8", "values": [
      {"measurement": "frequency among sorted CD8+CD137+ PDO(T)-oeT cells", "setting": "[6]; chains alpha TRAV14/DV4*03 TRAJ24*03 CDR3:beta TRBV28*01 TRBJ1-4*01 CDR3", "result": 12.4, "unit": "%"}
    ]},
    {"binder": "B9", "values": [
      {"measurement": "frequency among sorted CD8+CD137+ PDO(T)-oeT cells", "setting": "[7]", "result": 4, "unit": "%"}
    ]},
    {"binder": "B10", "values": [
      {"measurement": "frequency among sorted CD8+CD137+ PDO(T)-oeT cells", "setting": "[8]", "result": 25.6, "unit": "%"}
    ]},
    {"binder": "B11", "values": [
      {"measurement": "frequency among sorted CD8+CD137+ PDO(T)-oeT cells", "setting": "[9]", "result": 5, "unit": "%"}
    ]},
    {"binder": "B12", "values": [
      {"measurement": "frequency among sorted CD8+CD137+ PDO(T)-oeT cells", "setting": "[10]", "result": 9.3, "unit": "%"}
    ]},
    {"binder": "B13", "values": [
      {"measurement": "frequency among sorted CD8+CD137+ PDO(T)-oeT cells", "setting": "[11]", "result": 13.5, "unit": "%"}
    ]},
    {"binder": "B14", "values": [
      {"measurement": "frequency among sorted CD8+CD137+ PDO(T)-oeT cells", "setting": "[6]; chains alpha TRAV13-1*01 TRAJ42*01 CDR3:beta TRBV4-1*01 TRBJ2-1*01 CDR3", "result": 3.1, "unit": "%"}
    ]},
    {"binder": "B15", "values": [
      {"measurement": "frequency among sorted CD8+CD137+ PDO(T)-oeT cells", "setting": "[12]", "result": 4, "unit": "%"}
    ]},
    {"binder": "B16", "values": [
      {"measurement": "frequency among sorted CD8+CD137+ PDO(T)-oeT cells", "setting": "[13]", "result": 3, "unit": "%"}
    ]},
    {"binder": "B17", "values": [
      {"measurement": "frequency among sorted CD8+CD137+ PDO(T)-oeT cells", "setting": "[3]; chains alpha TRAV13-2*01 TRAJ8*01 CDR3:beta TRBV30*01 TRBJ1-2*01 CDR3", "result": 7.1, "unit": "%"}
    ]}
  ]
}
